± gives the standard deviation.
Assay: protein stability index of a GFP-peptide fusion (GPS, HEK-293T) (PSI 1-6); higher = more stable
[1] = treatment: DMSO, c terminus: a fixed tail appended
[2] = treatment: MLN4924 1 uM, 8 h, c terminus: a fixed tail appended
[3] = treatment: DMSO, c terminus: native
[4] = treatment: MLN4924 1 uM, 8 h, c terminus: native
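Note: 24-mer peptide tiles fused after GFP, lentivirally expressed, FACS-sorted into six equal bins by GFP/DsRed ratio, decoded by Illumina sequencing, PSI is the read-weighted mean bin number.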

Sequence | protein stability index [1] | protein stability index [2] | protein stability index [3] | protein stability index [4]
VLRAGDREDITEPAICALRHLTSR [CTNNB1] | 3.39 ± 0.39 | 3.67 ± 0.18 |  | 
QYEKYSFRGFPPEDLMPLAAAYGH [P3H4] | 3.01 ± 0.4 | 2.55 ± 0.57 |  | 
EFTELLKVMIHPDPERRPSAMALV [WEE1] | 2.23 ± 0.35 | 2.06 ± 0.23 |  | 
VFFAYAQLGYLLFGTQVENFSTFI [PKD2L1] | 3.33 ± 0.054 | 2.71 ± 0.72 |  | 
QPSFPEILLESHMVMIRGNSGLKP [POMT2] | 2.79 ± 0.3 | 3.07 ± 0.21 |  | 
IPAVGSSLSEALDLIESDPDAWCD [MYBL2] | 4.47 ± 0.58 | 4.58 ± 0.23 |  | 
EASNFQMDRKTRFIIHGFIDKGDE [PNLIPRP1] | 3.26 ± 0.21 | 3.27 ± 0.27 |  | 
LLIFGKELSAIGSDTTPLPSWAAL [SNX8] | 2.42 ± 0.37 | 2.13 ± 0.28 |  | 
KMPVLKAEASHYNSDLNNLLFCCQ [RHOBTB3] | 2.27 ± 0.41 | 2.29 ± 0.15 |  | 
MPLSGTPAPNKKRKSSKLIMELTG [MYOZ1] | 3.63 ± 0.24 | 3.81 ± 0.22 |  | 
GLEQFINKVAGHPLAQNERCLHMF [SNX3] | 2.72 ± 0.61 | 2.21 ± 0.11 |  | 
TQQNRKLTDFYPVRRSSRKSKAEL [KMT5A] | 2.97 ± 0.89 | 3.76 ± 0.29 |  | 
ISPKARCLIRSLLRREPSERLTAP [TRIB1] | 2.22 ± 0.24 | 2.33 ± 0.39 |  | 
DFITLYQMASQSSASHYKLQVIKA [M1AP] | 2.63 ± 0.3 | 2.44 ± 0.43 |  | 
VCEQCLQILYESCPKYKFISCPTC [RNF208] | 4.06 ± 0.29 | 4.09 ± 0.5 |  | 
NHGFEVLYHSVKQGPISTKELADF [FCHO1] | 3.4 ± 0.15 | 3.29 ± 0.17 |  | 
IIEELGEQRDQLERTKSRLVNTSE [VTI1B] | 4.57 ± 0.41 | 4.63 ± 0.15 |  | 
PDDFVPPVPPPSYFATFYSCTPRM [FAM189A2] | 2.65 ± 0.15 | 2.7 ± 0.32 |  | 
AAPGKQPGRGHTHAAQGGPLLCPG [ELOA2] | 4.09 ± 0.31 | 4.31 ± 0.26 |  | 
GDTSATESGDEVPVELYTAFQHTP [KMT2E] | 4.97 ± 0.18 | 5.04 ± 0.17 |  | 
VDKYVNSFVLKNFPALLSTGEFLK [KLHL13] | 2.01 ± 0.45 | 2.1 ± 0.6 |  | 
EAVPARGEPQQDCCVKTELLGEET [EHMT1] | 5.52 ± 0.27 | 5.65 ± 0.26 |  | 
VQVSPEFKDSAGKSPTGLKLKNDT [ZNF75A] | 4.96 ± 0.23 | 4.91 ± 0.15 |  | 

Sequence | protein stability index [1] | protein stability index [2] | protein stability index [3] | protein stability index [4]
ACSAPGGLVPSEKPPMMPQAQPAI [C2CD2L] | 4.24 ± 0.15 | 4.18 ± 0.19 |  | 
LAPGPAPTRCLPGHKEEEDGEGAG [ESRRA] | 5.45 ± 0.16 | 5.48 ± 0.081 |  | 
ARKLTAQRRASTVSSVTQVEVDEN [NET1] | 5.15 ± 0.39 | 5.14 ± 0.33 |  | 
LVKQECIKEVVEKREACHCEEVKM [FAN1] | 4.54 ± 0.4 | 4.7 ± 0.23 |  | 
GTAGPLALARDLLSETADPFFVLN [GMPPB] | 3.18 ± 0.31 | 3.23 ± 0.27 |  | 
TICYCPEKGTWTELEGDVAEPLAG [KLHL14] | 4.39 ± 0.18 | 4.59 ± 0.26 |  | 
QCMQPNNIMGIENICELAARMLFS [NR2F2] | 2.45 ± 0.68 | 2.49 ± 0.36 |  | 
RYDAEVVAIAQKFAALRASLVAPL [MYORG] | 2.55 ± 0.17 | 2.01 ± 0.17 |  | 
IMGNLLIIVTIMASQSLGSPMYFF [OR4A15] | 3.35 ± 0.29 | 3.52 ± 0.3 |  | 
SLVWGMVCGQNWGIVEAMVVCRQL [LOXL2] | 2.46 ± 0.82 | 3.07 ± 0.36 |  | 
MEPSPLSPSGAALPLPLSLAPPPL [ZBTB22] | 4.07 ± 0.35 | 4.11 ± 0.18 |  | 
ADVLLQAGADLEHESEGGRTPLMK [ANKRD17] | 5.17 ± 0.34 | 5.29 ± 0.15 |  | 
DINLNSPNKGLLSDSMTDVPVDTG [TPD52L2] | 4.19 ± 0.2 | 4.51 ± 0.22 |  | 
ANRWSFDGIDRWIKEIDEHAPGVP [RAB40B] | 3.92 ± 0.076 | 3.92 ± 0.12 |  | 
KYEKLRGDVAIKLKFLEENKIKVM [ARFIP2] | 2.22 ± 0.37 | 2.48 ± 0.27 |  | 
KPTRRDASPESPSKKGPIPIRRH [GNAS] |  |  | 4.71 ± 0.19 | 5.21 ± 0.49
IRSPRPASVATWAIFVHRVGQPSI [CTBP1-DT] | 2.46 ± 0.5 | 2.47 ± 0.31 |  | 
AELKEAVEEPSSKDVMEKREDSKE [CHGA] | 5.67 ± 0.083 | 5.61 ± 0.17 |  | 
GKIIGGMWRDLTDEEKQEYLNEYE [SMARCE1] | 4.56 ± 0.14 | 4.64 ± 0.27 |  | 
EEDEQLRALVRQFGQQDWKFLASH [MYBL2] | 3.17 ± 0.36 | 3.46 ± 0.17 |  | 
NFFRMFDRNTKRDVTLEASRESSK [PPP2R2C] | 3.74 ± 0.32 | 3.73 ± 0.26 |  | 
GSPVSSWILLAESNSADDETDDPR [OAS1] | 5.02 ± 0.27 | 4.99 ± 0.39 |  | 
GVSFSTVENELMISYLMFLQILVY [FAM98B] | 3.08 ± 0.45 | 3.22 ± 0.41 |  | 

Sequence | protein stability index [1] | protein stability index [2] | protein stability index [3] | protein stability index [4]
VMDYLPISSTSTKRTYWPDLDAKI [PLD5] | 2.77 ± 0.19 | 2.85 ± 0.1 |  | 
AIRPENRAPGAGLGQDRQVPLWGQ [EMD] | 3.5 ± 0.21 | 3.45 ± 0.18 |  | 
IGTMAGITTPIIDTFKVPKEMFTV [SLC6A17] | 2.45 ± 0.3 | 2.71 ± 0.24 |  | 
MRILAHGELVLATAISSFTRHVFT [TLE6] | 3.1 ± 0.61 | 2.76 ± 0.35 |  | 
YQGPGTRRLQEVLGVQTGGPGGRR [DYRK1B] | 3.59 ± 0.39 | 3.94 ± 0.36 |  | 
AFLLLPLPDELGSQLPQVLHVSLG [MOSPD3] | 2.96 ± 0.76 | 2.73 ± 0.49 |  | 
SLIQLLGRNFILFIIFGTMEEMQN [HACD3] | 2.92 ± 0.67 | 3.01 ± 1.3 |  | 
NIHPQVLLPDQARGEVPWSPELGR [ZNF263] | 4.12 ± 0.16 | 4.34 ± 0.21 |  | 
VKMDQKSKHLKEMYQELMEMCHKP [TRIM43] | 3.03 ± 0.15 | 3.13 ± 0.28 |  | 
LKDTYASLGKTNVKDDELDAMLKE [MYL5] | 5.28 ± 0.21 | 5.35 ± 0.2 |  | 
APSKEEMLSWILRINLVAAIFSAP [PSD2] | 2.71 ± 0.32 | 3.03 ± 0.62 |  | 
PGSASLAQSRLEDPGADSEKSTVV [DLX1] | 5.49 ± 0.38 | 5.36 ± 0.26 |  | 
GDKASPDQNASTHTPQSSVKTSVP [CLINT1] | 5.54 ± 0.19 | 5.38 ± 0.28 |  | 
RPSTYYELLGVHPGASTEEVKRAF [DNAJC4] | 3.48 ± 0.21 | 3.86 ± 0.23 |  | 
EGEIATYRHLLEGEDCKLPPQPCA [KRT36] | 4.6 ± 0.26 | 4.26 ± 0.24 |  | 
TKPKTTAIQGISEKEKAEIEAKEA [DLC1] | 5.56 ± 0.25 | 5.35 ± 0.35 |  | 
SFEHRVRGVRRTASTPTPDDKLFQ [CPN1] | 4.3 ± 0.31 | 4.37 ± 0.3 |  | 
ISQYEDDLPPPPADPVLDLPLPPP [APBB1IP] | 4.93 ± 0.18 | 4.913 ± 0.048 |  | 
KVSQWWERLTKQEKRPLFLAPDFD [HACD3] | 2.34 ± 0.31 | 2.55 ± 0.089 |  | 
NTFIALALQTLLTLIVVDASGLGL [SLC19A2] | 3.36 ± 0.57 | 3.3 ± 0.27 |  | 
TQSLPTASASKFPSSGPVTPQPTA [AUP1] | 4.85 ± 0.22 | 4.78 ± 0.16 |  | 
YRSLGSVQAPSYGARPVSSAASVY [KRT18] | 3.33 ± 0.23 | 3.17 ± 0.097 |  | 
WVNDPQRMDKRTLALLVLAHSSDV [GOLPH3L] | 2.19 ± 0.3 | 2.18 ± 0.2 |  | 

Sequence | protein stability index [1] | protein stability index [2] | protein stability index [3] | protein stability index [4]
EQAKENENGELQKIILPRSRVKG [ZC2HC1C] |  |  | 3.42 ± 0.47 | 3.42 ± 0.28
EFVIIDCRYPYEYEGGHIKGAVNL [CDC25A] | 2.47 ± 0.29 | 2.3 ± 0.43 |  | 
TYGRRAKGHNTPKDIAHFWELGGG [DYNC2LI1] | 2.84 ± 0.11 | 3.07 ± 0.18 |  | 
DRISTTFRLTTLLMSGCSSELKNR [PLK2] | 2.19 ± 0.46 | 2.43 ± 0.18 |  | 
REKQLSHSLRAVSTDPPHHDHHDE [BEX1] | 5.37 ± 0.4 | 5.382 ± 0.051 |  | 
AFGWFRCSSCQRSWASAQVQILCH [RTP4] | 2.45 ± 0.37 | 2.68 ± 0.54 |  | 
MEIATYRKLLESEECRMSGEFPSP [KRT71] | 3.91 ± 0.53 | 4.07 ± 0.36 |  | 
EEVVSFVKKNVLVTGGFFGGFLLG [FUNDC2] | 2.36 ± 0.68 | 2.61 ± 0.73 |  | 
MGQKVTGGIKTVDMRDPTYRPLKQ [SPSB1] | 3.89 ± 0.22 | 4.01 ± 0.28 |  | 
IENRDVAKSVLKERGLKKIRLGIE [BTBD10] | 3.36 ± 0.28 | 3.32 ± 0.13 |  | 
GALTGKENNMLQPETHIFTAPEEV [DMRTC1] | 5.19 ± 0.17 | 5.01 ± 0.16 |  | 
ALILHQRIHSGKKPYACDECAKAF [ZNF396] | 2.11 ± 0.26 | 2.84 ± 0.45 |  | 
PVRCAGDWLPRGLGWGGRGAAVCA [ALG2] | 2.57 ± 0.36 | 2.25 ± 0.27 |  | 
FSVSSTSRRIYRCRNCINLQNEAQ [IQUB] | 2.02 ± 0.19 | 2.34 ± 0.34 |  | 
GGWETVFRPVSETCTDRSGISTGH [FUT8] | 3.48 ± 0.35 | 3.43 ± 0.22 |  | 
VSQAVEGPEELSRSSSESKLPSSG [RIPK4] | 5.21 ± 0.62 | 5.06 ± 0.58 |  | 
WEAKQEKIKSEEIEITFSYWDGSG [FAM50A] | 2.59 ± 0.3 | 2.6 ± 0.35 |  | 
EEHWVGLKKEPGHPWKWSNGKEFN [CD69] | 3.19 ± 0.27 | 3.33 ± 0.21 |  | 
NHPDLAKDLTEYLKVRSHDPEEAI [PDS5B] | 4.7 ± 0.23 | 4.43 ± 0.59 |  | 
LPAQPNRKPGMSSTARRSRAASSQ [CHMP4C] | 4.88 ± 0.16 | 4.87 ± 0.16 |  | 

Reference: the supplement of paper PMC10567573
